Data: the nanobody polyreactivity screen of Harvey et al. (2022)

Test: yeast display, Sf9 membrane polyspecificity reagent, FACS + sequencing; frameworks hold sequencing errors
Outline: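 Nanobodies came from a synthetic yeast display library in Saccharomyces cerevisiae BJ5465, induced with galactose for 36–48 hours and stained for 1 hour at 4 °C with 10% biotinylated, detergent-solubilized Sf9 membrane reagent. Cells were enriched on streptavidin microbeads and then FACS-sorted, with low and high (top ~1%) gates set on anti-HA fluorescence for expression and streptavidin fluorescence for reagent binding. Each polyreactivity label reflects the gate a clone came from. Genes were amplified by colony PCR, sequenced by MiSeq 2 × 250 and filtered by CDR length.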

| Sequence | polyreactivity (PSR sort gate) |
| --- | --- |
| QVQLVESGGGLVQAGCSLRLSCAASGSIFFSYAMGWYRQAPGKEREFVAAINSDDASTYADSVKGRFTISRDNAKNTVYLQKNSLNPEDTAVYYCAASFLWSWYDYWGQGTHVTVSS | low polyreactivity |
| QVQLVESGGGLVQAGGSLRLSCAASGYILDRNAMGWYIQAPGKEREFVAVISWGGTRTYYADSVKGRFTISRDNAKNTVYLQMNSLKPEDTAVYYCARYPYYYGYAGRYDYWGQGTQVTVSS | high polyreactivity |
| QVQLVESGGGLDQAGGSLRLTCAASGRIISGNAMGWYRQAPGKERELVAAISWSGGSTYYADSVKWRFTISRDNEKNTVYLHMNSLQPEDSAVYYCNAPGYRRYGSRMGYCGQGTQVTVSS | high polyreactivity |
| QVQLVESGGGLVQEGGSLRLSCAASGSIFGGYALGWYRQAPGKERELVAAITWRGGRTYYADSVKGRFTISRDNAKNTVYLQMNSMKPEDTAVYYCNAVGSYRLYDYWGQGTQVTVSS | high polyreactivity |
| QVQLVESGGGLVQAGGSLRLSCAASGSIFRNYAMGWSRQAPGKERELVAAINWNGGSTYYADSVKGRFTISRDNAKNTVYLQMNSLKPEDTAVYYCAARSSKFVTSNRYDYWGQGTQVTVSS | high polyreactivity |
| QVQLQESGGGLVQAGGSLRPRCAAGGTIFVSVNRGWYRHAPGEEREFVASITQGATTNYADSLIGRFTISRDNAKNTVYLQMNCQKPEDTAVYYCAVHESGGITFTYWGQGTQVTVSS | high polyreactivity |
| QDQLVESGGGLVQAGGSLRLICAASGRTFYPYVMGWYRQAPGKERDLVAAITDSGGNTYYADSVKGRFTISRDNAKNTVYLQMNSLKPEDTAVYYCNARFYYPSRRGTFQYNYWGQGTQVTVSS | low polyreactivity |
| QVQLVESGGGLVQAGGSLRLSCAASGRIFYNNVMGWYRQAPGKERELVAAISGNGGSTYYADSVKGRFTISRDNAKNTVYLQMNSLKPEDTAVYYCAKGSHSYLISTGDYWGQGTQVTVSS | low polyreactivity |
| QVQQQESGGGLVQAGGSLRLSCAASGTIFQLTVMGRYRQASGKERELVASIDYGGNTNYADSVKGRFTISRDNAKNTVYLQMNSLKPEDTAVYYCEASSDSWTTHPYWGQGTQVTVSS | low polyreactivity |
| QVQLVESGGGLVQAGGSLRLSCAASGTTFGRNAMGWYRQAPGKERELVAAITACGGTTYYADSVKGRFTISRDNAKNTVYLQMNSLKPEDTAVYYCARAGHFSFKYDYWGQGTQVTVSS | low polyreactivity |
| QVQLVESGGGLVPAGGSLRLSCAASGSTFPVYAMGWYRPAPGTERELVAAINSGVSTNYADSVKGRFTMSRDNANTTVYLQRNSLKPEDTAVYYCNTSYVGYPDLGINYEFDYWGQGTQVTVSS | low polyreactivity |
| QVQLVESGGGLLQAGGSLRLSCAASGFIFRFNAMGWYRQAPWTERELVAVIRWSSGSTYYADSVKGRFTISRDNAKNTVYLQMNSRKPEDTAVYYCAAVDDEYSIVWYDYWGQGTQVTVSA | low polyreactivity |
| QAQLVESGGGLVQAGGSLRLSSAATGIIFGRYAMGWYRQAPGKERELVAAISTSGGSTYYADSVKGRFTISRDNAKNTVYLQMNSLKAEDTAVYYCAVDLFYKYDWGQGTQVTVSS | high polyreactivity |
| QVQLVESGGGLVQAGGSLRLTCAASGRNFPAYVMGWYRQAPGKERELVAGITSASSTYYADSVKGRFTISRDNAKNTVYLQMNSLKPEDTAVYYCAAVGYSVRQRYDYWGQGSQVTVSS | high polyreactivity |
| QVQLVESGGGLVQAGGSLRLSCAASGRIFGDYAMGWYRQAPGKERELVAAISWSDGSTYYADSVKGRFTISRDNAKNTVYLQMNSLKPEDTAVYYCAAYGWGYRYVDVVVSDFYYWGQGTQVTVSS | low polyreactivity |
| QVQLQESGGGLVQAGGSLRLSCAASGSISGPQVMGWYRQAPGKEREFVAAINVGANTYYADNVKGRFTISRDNAKNTVYLQMTSLKPEDTAVYYCAAVYYGDIGHEYWGQGTQVTVSC | low polyreactivity |
| QVQLVESGGGLVQAGGSLRLSCAASGSIFYTYAMGWYRQAPGKERELVAAISRSGGSTYYADSVKGRFTISRDNAKNTVYLQMNSLKPEDTAVYYCAARPPYRVGIVPLGRREYYWGQGTQVTVSS | high polyreactivity |
